Data as given in PMC8659020, “Ferrocene-Labelled Electroactive Aptamer-Based Sensors (Aptasensors) for Glycated Haemoglobin”.

Target: Haemoglobin (Hb) (UniProt P69905;P68871 2-142;2-147)
Assay: differential pulse voltammetry (electrochemical aptasensor); aptamer immobilized on electrode; DPV in 10 mM Tris-HCl (stated for clinical-range test; pH and temperature not given); EIS in 5 mM [Fe(CN)6]3-/4-, 0.1 M KCl; aptamer loaded in 5 mM MgCl2, 10 mM Tris-HCl, electrodes rinsed with 0.1 M PBS pH 6.5, 1 mM MgCl2
Conditions: protein: commercial; chain copies: 2;2; label: 5' ferrocene; single strand, Mfold-predicted secondary structure

Chain of Haemoglobin (Hb) (P69905 2-142, chain 1 of 2): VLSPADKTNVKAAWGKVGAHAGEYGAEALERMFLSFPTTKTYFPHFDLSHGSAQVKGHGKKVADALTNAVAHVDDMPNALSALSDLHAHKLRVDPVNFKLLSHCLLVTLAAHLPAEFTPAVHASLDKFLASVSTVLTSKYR
Chain of Haemoglobin (Hb) (P68871 2-147, chain 2 of 2): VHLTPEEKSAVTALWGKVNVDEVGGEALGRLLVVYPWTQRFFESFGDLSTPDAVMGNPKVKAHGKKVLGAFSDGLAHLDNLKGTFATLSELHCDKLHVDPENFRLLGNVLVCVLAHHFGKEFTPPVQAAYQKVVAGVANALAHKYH

B1: Hb aptamer (II) (ssDNA)
DNA: ACGCACACCAGAGACAAGTAGCCCCCCAAACGCGGCCACGGAACGCAGCACCTCCATGGC
modifications: 5' ferrocene; 3' thiol (SH), immobilized on gold screen-printed electrode
- Kd: 95.9 ± 40 µg/mL
